Article PMC3903627

Target: Luciferase-ArgBP2 P1 and EYFP-ArgBP2 P1 (BRET pair)
Test: BRET
Settings: HEK293T cells, one representative experiment, read off a plot

## Luciferase-ArgBP2 WT and EYFP-ArgBP2 WT (BRET pair) P497A; P500A
0.10 µg YFP fused protein, parent: est. 510
  response: 190 mBu
0.20 µg YFP fused protein, parent: est. 670
  response: 310 mBu
0.30 µg YFP fused protein, parent: est. 740
  response: 390 mBu
0.40 µg YFP fused protein, parent: est. 790
  response: 490 mBu
0.50 µg YFP fused protein, parent: est. 790
  response: 570 mBu
